Assay results published in patent publication US20160244497A1 (Amgen, published 2016).
Changes are numbered by the printed parent chain. In names and notes the source's numbering stands. Like-named read-outs stand apart in the source and are kept apart here.

B1: dually PEGylated FGF21 mutant R77C, H125C (ligand)
chain: MHPIPDSSPLLQFGGQVRQRYLYTDDAQQTEAHLEIREDGTVGGAADQSPESLLQLKALKPGVIQILGVKTSRFLCQCPDGALYGSLHFDPEACSFRELLLEDGYNVYQSEAHGLPLHLPGNKSPCRDPAPRGPARFLPLPGLPPAPPEPPGILAPQPPDVGSSDPLSMVGPSQGRSPSYAS
modifications: 20 kDa methoxy-PEG-maleimide on Cys 77 and on Cys 125
B2: dually PEGylated FGF21 mutant E91C, H125C (ligand)
chain: B1 chain with C78R, E92C
modifications: 20 kDa methoxy-PEG-maleimide on Cys 91 and on Cys 125
B3: dually PEGylated FGF21 mutant R77C, G120C (ligand)
chain: B1 chain with G121C, C126H
modifications: 20 kDa methoxy-PEG-maleimide on Cys 77 and on Cys 120
B4: dually PEGylated FGF21 mutant E37C, E91C (ligand)
chain: B1 chain with E38C, C78R, E92C, C126H
modifications: 20 kDa methoxy-PEG-maleimide on Cys 37 and on Cys 91
B5: dually PEGylated FGF21 mutant E91C, R175C (ligand)
chain: B1 chain with C78R, E92C, C126H, R176C
modifications: 20 kDa methoxy-PEG-maleimide on Cys 91 and on Cys 175
B6: dually PEGylated FGF21 mutant E37C, R175C (ligand)
chain: B1 chain with E38C, C78R, C126H, R176C
modifications: 20 kDa methoxy-PEG-maleimide on Cys 37 and on Cys 175
B7: dually PEGylated FGF21 mutant E91C, G120C (ligand)
chain: B1 chain with C78R, E92C, G121C, C126H
modifications: 20 kDa methoxy-PEG-maleimide on Cys 91 and on Cys 120
B8: dually PEGylated FGF21 mutant E37C, G120C (ligand)
chain: B1 chain with E38C, C78R, G121C, C126H
modifications: 20 kDa methoxy-PEG-maleimide on Cys 37 and on Cys 120
B9: dually PEGylated FGF21 mutant R77C, R175C (ligand)
chain: B1 chain with C126H, R176C
modifications: 20 kDa methoxy-PEG-maleimide on Cys 77 and on Cys 175
B10: PEGylated FGF21 mutant K69C (ligand)
chain: B1 chain with K70C, C78R, C126H
modifications: 20 kDa methoxy-PEG-maleimide on Cys 69
B11: dually PEGylated FGF21 mutant E37C, H125C (ligand)
chain: B1 chain with E38C, C78R
modifications: 20 kDa methoxy-PEG-maleimide on Cys 37 and on Cys 125
B12: dually PEGylated FGF21 mutant E37C, K69C (ligand)
chain: B1 chain with E38C, K70C, C78R, C126H
modifications: 20 kDa methoxy-PEG-maleimide on Cys 37 and on Cys 69
B13: dually PEGylated FGF21 mutant K69C, E91C (ligand)
chain: B1 chain with K70C, C78R, E92C, C126H
modifications: 20 kDa methoxy-PEG-maleimide on Cys 69 and on Cys 91
B14: dually PEGylated FGF21 mutant G120C, R175C (ligand)
chain: B1 chain with C78R, G121C, C126H, R176C
modifications: 20 kDa methoxy-PEG-maleimide on Cys 120 and on Cys 175
B15: dually PEGylated FGF21 mutant K69C, G120C (ligand)
chain: B1 chain with K70C, C78R, G121C, C126H
modifications: 20 kDa methoxy-PEG-maleimide on Cys 69 and on Cys 120
B16: dually PEGylated FGF21 mutant K69C, H125C (ligand)
chain: B1 chain with K70C, C78R
modifications: 20 kDa methoxy-PEG-maleimide on Cys 69 and on Cys 125
B17: dually PEGylated FGF21 mutant K69C, R77C (ligand)
chain: B1 chain with K70C, C126H
modifications: 20 kDa methoxy-PEG-maleimide on Cys 69 and on Cys 77
B18: dually PEGylated FGF21 mutant H125C, R175C (ligand)
chain: B1 chain with C78R, R176C
modifications: 20 kDa methoxy-PEG-maleimide on Cys 125 and on Cys 175
B19: dually PEGylated FGF21 mutant K69C, R175C (ligand)
chain: B1 chain with K70C, C78R, C126H, R176C
modifications: 20 kDa methoxy-PEG-maleimide on Cys 69 and on Cys 175
B20: dually PEGylated FGF21 mutant E37C, G170C (ligand)
chain: B1 chain with E38C, C78R, C126H, G171C
modifications: 20 kDa methoxy-PEG-maleimide on Cys 37 and on Cys 170
B21: dually PEGylated FGF21 mutant E37C, R77C, P171G (ligand)
chain: B1 chain with E38C, C126H, P172G
modifications: 20 kDa methoxy-PEG-maleimide on Cys 37 and on Cys 77
B22: dually PEGylated FGF21 mutant E91C, H125C, P171G (ligand)
chain: B1 chain with C78R, E92C, P172G
modifications: 20 kDa methoxy-PEG-maleimide on Cys 91 and on Cys 125
B23: dually PEGylated FGF21 mutant R77C, G120C, P171G (ligand)
chain: B1 chain with G121C, C126H, P172G
modifications: 20 kDa methoxy-PEG-maleimide on Cys 77 and on Cys 120
B24: dually PEGylated FGF21 mutant E37C, E91C, P171G (ligand)
chain: B1 chain with E38C, C78R, E92C, C126H, P172G
modifications: 20 kDa methoxy-PEG-maleimide on Cys 37 and on Cys 91
B25: dually PEGylated FGF21 mutant E91C, R175C, P171G (ligand)
chain: B1 chain with C78R, E92C, C126H, P172G, R176C
modifications: 20 kDa methoxy-PEG-maleimide on Cys 91 and on Cys 175
B26: dually PEGylated FGF21 mutant E37C, R175C, P171G (ligand)
chain: B1 chain with E38C, C78R, C126H, P172G, R176C
modifications: 20 kDa methoxy-PEG-maleimide on Cys 37 and on Cys 175
B27: dually PEGylated FGF21 mutant E91C, G120C, P171G (ligand)
chain: B1 chain with C78R, E92C, G121C, C126H, P172G
modifications: 20 kDa methoxy-PEG-maleimide on Cys 91 and on Cys 120
B28: dually PEGylated FGF21 mutant E37C, G120C, P171G (ligand)
chain: B1 chain with E38C, C78R, G121C, C126H, P172G
modifications: 20 kDa methoxy-PEG-maleimide on Cys 37 and on Cys 120
B29: dually PEGylated FGF21 mutant E37C, H125C, P171G (ligand)
chain: B1 chain with E38C, C78R, P172G
modifications: 20 kDa methoxy-PEG-maleimide on Cys 37 and on Cys 125

Assays:
Experiment in all cases: cell-based or functional assay
beta-klotho [1] = target: beta-klotho
beta-klotho [2] = target: beta-klotho; remark: listed apart in the source
beta-klotho [3] = target: beta-klotho; remark: listed apart in the source

Binder	EC50, ELK-luciferase assay (beta-klotho [1]) [nM]	EC50, ELK-luciferase assay (beta-klotho [3]) [nM]	also measured
B1	30		
B2	32		
B3	34		
B4	36		
B5	46		
B6	50		
B7	54		
B8	55		
B9	62		
B10			EC50, ELK-luciferase assay (beta-klotho [2]): 5.3 nM
B11	64		
B12	67		
B13	69		
B14	118		
B15	119		
B16	164		
B17	180		
B18	200		
B19	318		
B20	163		
B21		27	
B22		37	
B23		35	
B24		30	
B25		155	
B26		162	
B27		34	
B28		35	
B29		37	
